The values that follow are results of earlier work, collected in PMC5992718.

In the data set the target is PD-L1 (Homo sapiens) (UniProt Q9NZQ7).
UniProt Q9NZQ7, sequence (Q9NZQ7 19-238): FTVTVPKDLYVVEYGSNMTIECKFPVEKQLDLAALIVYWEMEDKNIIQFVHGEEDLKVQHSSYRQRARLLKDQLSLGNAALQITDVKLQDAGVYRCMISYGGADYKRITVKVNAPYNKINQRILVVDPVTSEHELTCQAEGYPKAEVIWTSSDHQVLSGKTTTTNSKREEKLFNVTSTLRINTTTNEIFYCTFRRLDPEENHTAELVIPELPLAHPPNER

With PD-1 (from UniProt Q02242), the equilibrium dissociation constant (Kd) (in general, the equilibrium constant for the complex coming apart) is 29.8 µM.
